Reference: the supplement of paper PMC6757056
± gives the standard deviation of the averaged measurements.

B1: library; a variant is named by its letters at N, in order (parent)
chain: GCUGUCACCGGAAUACCAGCAUCGUCUUGAUGCCCUUGGAAGUCCGGUCUGAUGAGUCCNNNNNGGACGAAACAGC

Legend:
[1] = variants of: B1; assay: FACS-Seq fitted mean relative fluorescence mCherry/BFP without ligand (log10 relative fluorescence); higher = higher reporter protein expression; conditions: HEK293T, ligand present: no
Method: (§1)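 Hammerhead (sTRSV) ribozyme switch libraries with a ligand aptamer grafted on stem I and a randomized N4-6 loop II, cloned into the 3' UTR of mCherry and transiently transfected into HEK293T cells; RNA-Seq 72 h post transfection with ligand added 1 h before transfection; RNA read count / plasmid DNA read count normalized to the non-cleaving sTRSVctl (x100), log10; sequences with >100 DNA reads. FACS-Seq: lentiviral library sorted into 6 bins after 48 h ligand, log-normal fit mean of mCherry/BFP scaled to controls. Printed sequences are partial switch sequences.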

[2] = variants of: B1; assay: normalized RNA/DNA level with ligand (relative to sTRSVctl = 100) (log10 (% of sTRSVctl)); higher = less ribozyme self-cleavage, higher mRNA level; conditions: ligand concentration (+) RNA-Seq: 5 mM, HEK293T, reporter: mCherry (pCS4076), ligand present: yes
Method: as §1

[3] = variants of: B1; assay: normalized RNA/DNA level without ligand (relative to sTRSVctl = 100) (log10 (% of sTRSVctl)); higher = less ribozyme self-cleavage, higher mRNA level; conditions: HEK293T, reporter: mCherry (pCS4076), ligand present: no
Method: as §1

[4] = variants of: B1; assay: FACS-Seq fitted mean relative fluorescence mCherry/BFP with ligand (log10 relative fluorescence); ligand concentration (+) FACS-Seq: 1 mM; higher = higher reporter protein expression; conditions: HEK293T, ligand present: yes
Method: as §1

Row | Variant | FACS-Seq fitted mean (log10) [1] | normalized RNA/DNA level with ligand (log10) [2] | normalized RNA/DNA level without ligand (log10) [3] | FACS-Seq fitted mean (log10) [4]
1 | GCUGUCACCGGAAUACCAGCAUCGUCUUGAUGCCCUUGGAAGUCCGGUCUGAUGAGUCCCCUUUGGACGAAACAGC [CCUUU] | 0.664 ± 0.036 | 2.046 ± 0.019 | 1.85 ± 0.039 | 0.81 ± 0.074
2 | GCUGUCACCGGAAUACCAGCAUCGUCUUGAUGCCCUUGGAAGUCCGGUCUGAUGAGUCCUAUGCGGACGAAACAGC [UAUGC] | 0.174 ± 0.099 | 2.02 ± 0.087 | 2 ± 0.11 | 0.278 ± 0.059
3 | GCUGUCACCGGAAUACCAGCAUCGUCUUGAUGCCCUUGGAAGUCCGGUCUGAUGAGUCCUAGGAGGACGAAACAGC [UAGGA] | 0.042 ± 0.047 | 1.958 ± 0.0077 | 1.55 ± 0.063 | 0.302 ± 0.044
4 | GCUGUCACCGGAAUACCAGCAUCGUCUUGAUGCCCUUGGAAGUCCGGUCUGAUGAGUCCCGAAUGGACGAAACAGC [CGAAU] | 0.071 ± 0.019 | 1.929 ± 0.0065 | 1.43 ± 0.076 | 0.306 ± 0.0069
5 | GCUGUCACCGGAAUACCAGCAUCGUCUUGAUGCCCUUGGAAGUCCGGUCUGAUGAGUCCGACGUGGACGAAACAGC [GACGU] | 0.7517 ± 0.0053 | 1.93 ± 0.027 | 1.64 ± 0.15 | 1.03 ± 0.022
6 | GCUGUCACCGGAAUACCAGCAUCGUCUUGAUGCCCUUGGAAGUCCGGUCUGAUGAGUCCUUAUGGGACGAAACAGC [UUAUG] | 0.732 ± 0.015 | 2.06 ± 0.071 | 1.907 ± 0.0097 | 0.821 ± 0.031
7 | GCUGUCACCGGAAUACCAGCAUCGUCUUGAUGCCCUUGGAAGUCCGGUCUGAUGAGUCCCGAGCGGACGAAACAGC [CGAGC] | 0.548 ± 0.016 | 2.013 ± 0.0077 | 1.94 ± 0.042 | 0.508 ± 0.037
8 | GCUGUCACCGGAAUACCAGCAUCGUCUUGAUGCCCUUGGAAGUCCGGUCUGAUGAGUCCGCAAGGGACGAAACAGC [GCAAG] | 0.716 ± 0.087 | 1.97 ± 0.14 | 1.66 ± 0.062 | 0.9 ± 0.035
9 | GCUGUCACCGGAAUACCAGCAUCGUCUUGAUGCCCUUGGAAGUCCGGUCUGAUGAGUCCGACAGGGACGAAACAGC [GACAG] | 0.769 ± 0.29 | 1.952 ± 0.0094 | 1.77 ± 0.055 | 0.612 ± 0.13
10 | GCUGUCACCGGAAUACCAGCAUCGUCUUGAUGCCCUUGGAAGUCCGGUCUGAUGAGUCCAGUUAGGACGAAACAGC [AGUUA] | 0.892 ± 0.082 | 1.87 ± 0.14 | 1.68 ± 0.039 | 1.035 ± 0.0042
11 | GCUGUCACCGGAAUACCAGCAUCGUCUUGAUGCCCUUGGAAGUCCGGUCUGAUGAGUCCGAACUGGACGAAACAGC [GAACU] | 0.973 ± 0.11 | 2.033 ± 0.0061 | 1.83 ± 0.12 | 0.975 ± 0.024
12 | GCUGUCACCGGAAUACCAGCAUCGUCUUGAUGCCCUUGGAAGUCCGGUCUGAUGAGUCCUUAAGGGACGAAACAGC [UUAAG] | 0.769 ± 0.074 | 2.02 ± 0.033 | 1.855 ± 0.012 | 0.829 ± 0.086
13 | GCUGUCACCGGAAUACCAGCAUCGUCUUGAUGCCCUUGGAAGUCCGGUCUGAUGAGUCCCGUGAGGACGAAACAGC [CGUGA] | -0.0723 ± 0.18 | 1.97 ± 0.025 | 1.58 ± 0.054 | 0.221 ± 0.11
14 | GCUGUCACCGGAAUACCAGCAUCGUCUUGAUGCCCUUGGAAGUCCGGUCUGAUGAGUCCAUUUCGGACGAAACAGC [AUUUC] | 1 ± 0.085 | 2.01 ± 0.07 | 1.97 ± 0.11 | 0.865 ± 0.018
15 | GCUGUCACCGGAAUACCAGCAUCGUCUUGAUGCCCUUGGAAGUCCGGUCUGAUGAGUCCCAAGAGGACGAAACAGC [CAAGA] | 0.32 ± 0.031 | 1.97 ± 0.023 | 1.56 ± 0.15 | 0.3733 ± 0.0017
16 | GCUGUCACCGGAAUACCAGCAUCGUCUUGAUGCCCUUGGAAGUCCGGUCUGAUGAGUCCAUGACGGACGAAACAGC [AUGAC] | 0.5991 ± 0.0031 | 1.914 ± 0.016 | 1.87 ± 0.16 | 0.786 ± 0.021
17 | GCUGUCACCGGAAUACCAGCAUCGUCUUGAUGCCCUUGGAAGUCCGGUCUGAUGAGUCCAAACCGGACGAAACAGC [AAACC] | 0.153 ± 0.14 | 1.96 ± 0.097 | 1.91 ± 0.14 | 0.18 ± 0.0037
18 | GCUGUCACCGGAAUACCAGCAUCGUCUUGAUGCCCUUGGAAGUCCGGUCUGAUGAGUCCCCGACGGACGAAACAGC [CCGAC] | 0.958 ± 0.04 | 1.94 ± 0.04 | 1.91 ± 0.13 | 1.06 ± 0.043
